# Data as given in paper PMC13045352, “Mapping Epidermal Growth Factor Receptor‑1 Sorting Domains in Endosomes with a Calibrated Three-Dimensional Expansion Microscopy Toolkit” (ACS Nano, 2026).
# B1: I3-01_60eGFP monomer of the self-assembling 60-subunit nanocage (one N-terminal eGFP per subunit) (other)
# chain: GSGGSGGSGGSGGSGKIEELFKKHKIVAVLRANSVEEAKKKALAVFLGGVHLIEITFTVPDADTVIKELSFLKEMGAIIGAGTVTSVEQCRKAVESGAEFIVSPHLDEEISQFCKEKGVFYMPGVMTPTELVKAMKLGHTILKLFPGEVVGPQFVKAMKGPFPNVKFVPTGGVNLDNVCEWFKAGVLAVGVGSALVKGTPVEVAEKAKAFVEKIRGCTEGSGSGSGSGS
# notes: linker between the vector's eGFP and I3-01; begins with the BamHI site GGATCC; I3-01 designed nanocage subunit (David Baker's laboratory); C-terminal linker before the stop codon; Printed molecular weight of the monomer 55.72 kDa; also called 60mer decahedral nanocage; source: HeLa cells, transfected, purified from lysate (centrifugation, 1 MDa spin concentrator); also expressed in RPE-1 cells; …
# Target: the molecule itself
# Test: negative-stain transmission electron microscopy; purified nanocages on glow-discharged carbon film-coated grids, stained with uranyl formate; particle widths measured (mean 28.3 nm)
protein,measurement,value
B1,binding result,binds
